Laboratory results published in the nanobody polyreactivity screen of Harvey et al. (2022).

Assay: yeast display, Sf9 membrane polyspecificity reagent, FACS + sequencing; frameworks hold sequencing errors
Method in brief: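 Synthetic nanobody libraries on Saccharomyces cerevisiae BJ5465 were galactose-induced for 36–48 hours, stained 1 hour at 4 °C with 10% biotinylated, detergent-solubilized Sf9 membrane reagent and enriched on streptavidin microbeads. FACS then separated cells into low and high (top ~1%) gates by anti-HA (expression) and streptavidin (reagent binding) fluorescence. Genes were colony-PCR amplified, MiSeq 2 × 250 sequenced and CDR-length filtered. A clone's polyreactivity label is that of its gate of origin.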

Sequence | polyreactivity (PSR sort gate)
QVQLVESGGGLVQAGGSLRLSCAASGSIFSSYAMGWSRQAPGKEREFVAAISTGGRTYYADSVKGRFTISRDNAKNTVYLQMNSLKPEDTAVYYCAADGPLPHKVGTHTLDYWGQGTQVTVSS | low polyreactivity
QVQLVESGGGLVQAGGSLRLSCAASGRTFGYYTMGWYRQAPGKERELVAAITWSGSTYYADSVKGRFTISRDNAKNTVYLQMNSLKPEDTAVYYCAVEIYYFVYGISYDYWGQGTQVTVSS | high polyreactivity
QVQLVESGGGLVQAGGSLRLSCAASGSIFLPNAMGWYRQAPGKERELVAVITGGGSTKYADSVKGRFTISRDNAKNTVYLQMNSLKPEDTAVYYCNAQSPVDPSCDYWGRGTQVTVSS | low polyreactivity
QVQLVESGGGLVQAGGSLRLSCAASGFTFVRYAMGWYRQAPGKESEFVASISARGGNTFYADSVKGRFTISRDNAKNTVYLQMNSLKPEDTAVYYCAKPGPYGTGYGYWGQGTQVTVSS | high polyreactivity
QVQLVESGGGLVQAGGSLRLSCAASGRTFRGYSMGWYRQAPGKERELVAAISTNGGSTRYADSVKGRFTISRDNSKNTVYLQMNSLKPEDTAVYYCARRDYWGQGTQVTVSS | high polyreactivity
QVQLVESGGGLVQAGGSLRLSCAASGSTFIGYTMGWYRQAPGKERELVAAISTSGARTYYADSVKGRFTISRDNAKNTVYLQMNSLKPEDTAVYYCAARAIYKSKYDYWGQGTQVTVSS | high polyreactivity
QVQLVESGGGLVQPGGTLRLTCAGSGSILTGNAMRWYRQAPGKERELVAAITSGGSTYYADSVKGRFTISRDNAKNTVYLQMNSLNQADSAGYYCAASRWRPLERGTTWLHDYWGQGTQVTVSS | low polyreactivity
QVQLVESGGGLVQAGGSLRLSCAASGRIFLRNAMGWYRQAPGKERELVAGINSGGSTYYADSVKGRFTISRDNAKNTVYLQMNSLKPEDTAVYYCAADDGNFLSEDRDSYYGYDYWGQGTQVTVSS | low polyreactivity
QVQLVESGGGLVQAGGSLRISCAASGRIFTPNAMGWYRQAPGKERELVAAITWSGDNTYADSVKGRFTISRDNAKKTVYLHMNTLKPEDTAVYYCAAAYGYGHKKYGYWGQGTQVTVSS | low polyreactivity
QVQLVESVGGLVQAGGSLRLSCAASGRTFYFYAMGWYRQAPGKERELVASITSSGGNTYYADSVKGRFTISRDNAKNTVYLQMNSLKPEDTAVYYCAARWFPWLQWKRYVYWGQGTQVTVSS | low polyreactivity
QVQLVESGGGLVQAGGSLRLSCAASGFTFTAYAMGWYRQAPGKERELVAAISNRGGRTYYADSVKGRFTFSRDNAKNTVYLQMNSLKPEDTAVYYCAAGYSYAQYSYPFLSFAFGYWGQGTQVTVSS | high polyreactivity
QVQLVESGGGLVQAGGSLRLSCAASGITFPYYAMGWYRQAPGKERELVAAISAGGTRTYYADSVKGRFTISRDNAKNNVYLQMNSLKPEDTAVYYCAARVWPIVQNYYWGQGTQVTVSS | high polyreactivity
QVQLVESGGGLVQEGGSLRLSCAASGSTFRFYAMGWYRQAPGKERELVAVISFNDGSTYYADSVTGRFTISRDNAKNTVYLQMNSLKPEDSAVYSCATDELDSWWNEYEYWGQGTQVTVSS | low polyreactivity
QVQLVESGGGLVQAGGSLRLSCAASGSTFDENAMGWYRQAPGKERELVAVISDSGGSTYYADSVKGRFTISRDNAKNTVDLQMNSLKPEVTAVYYCAKDVPPEYPTSSYDYWGQGTQVTVSS | low polyreactivity
QVQLVESGGGLVQAGGSLRLSCAASGSTFRYYAMGWYRQAPGKERELVAAISKSGGRTYYADSVKGRFTISRDNAKNTVYLEMNSLKPEDTAVYYCAADCVARYQKGQYDYWGQGTQVTVSS | high polyreactivity
QVQHVESGGVLVQAGGSLRLSCAASGSTFGGYAMGWYRQAPGKERELVASISRRGGSTYYADSVKGRFTLSRDNAKNTFYFHMNSLKPEDTAVYYCNAAFLRQVWDGYNYWGQGSQVTVSS | high polyreactivity
QVQLVESVGGLVQAGGSLRLSCAASGSTFYFNAMGWYRQAPGKERELVAAIDWSGGSTYYADSVKGRFTISRDNAKNTVYLQMNSLKPEDTAVYYCAAPYHYYGNTVGYADYDYWGQGTQVTVSS | low polyreactivity
